The assay addresses mutant pro-urokinase (human) (UniProt P00749). Description: cell-based or functional assay.

Consider “mixture of human MMP2 and MMP9, activated with APMA”, for which the activated MMP (ΔA/h^2*1000); time 0 h, 0.15 µM modified pro-urokinase was < 0.05 ΔA/h^2·1000; the activated MMP (ΔA/h^2*1000); time 1 h is 0.3 ΔA/h^2·1000; the activated MMP (ΔA/h^2*1000); time 2 h is < 0.05 ΔA/h^2·1000; the activated MMP (ΔA/h^2*1000); time 3 h was < 0.05 ΔA/h^2·1000. The activated MMP (ΔA/h^2*1000); time 4 h was 1.1 ΔA/h^2·1000, the activated MMP (ΔA/h^2*1000); time 6.5 h was 1.3 ΔA/h^2·1000, the activated MMP (ΔA/h^2*1000); time 24 h was 3.6 ΔA/h^2·1000 and the activated MMP (ΔA/h^2*1000); time 31 h was 35.9 ΔA/h^2·1000. In addition, the activated MMP (ΔA/h^2*1000); time 48 h was 48.9 ΔA/h^2·1000 and the activated MMP (ΔA/h^2*1000); time 48 h + EDTA was < 0.05 ΔA/h^2·1000.

In the case of “mixture of human MMP2 and MMP9, not activated”, the not activated MMP (ΔA/h^2*1000); time 0 h, 0.15 µM modified pro-urokinase is < 0.05 ΔA/h^2·1000; the not activated MMP (ΔA/h^2*1000); time 1 h was < 0.05 ΔA/h^2·1000; the not activated MMP (ΔA/h^2*1000); time 2 h is < 0.05 ΔA/h^2·1000; the not activated MMP (ΔA/h^2*1000); time 3 h was < 0.05 ΔA/h^2·1000. The not activated MMP (ΔA/h^2*1000); time 4 h was < 0.05 ΔA/h^2·1000, the not activated MMP (ΔA/h^2*1000); time 6.5 h is < 0.05 ΔA/h^2·1000, the not activated MMP (ΔA/h^2*1000); time 24 h was 1 ΔA/h^2·1000 and the not activated MMP (ΔA/h^2*1000); time 31 h was 2.1 ΔA/h^2·1000. Also, the not activated MMP (ΔA/h^2*1000); time 48 h was 14 ΔA/h^2·1000 and the not activated MMP (ΔA/h^2*1000); time 48 h + EDTA was < 0.05 ΔA/h^2·1000.

The record behind these values is patent EP0691409B1.
